{
  "source": "paper doi:10.1101/2021.03.16.435520",
  "key": {"[1]": {"target": "IRE1α kinase-endoribonuclease module, unphosphorylated (IRE1-KR-0P) (human) (UniProt O75460)", "experiment": "cross-linking"}, "[2]": {"target": "IRE1α kinase-endoribonuclease module, fully phosphorylated (IRE1-KR-3P) (human) (UniProt O75460)", "experiment": "cross-linking"}},
  "note": "Values joined by “and” are separate entries in the source; they are usually repeats but may differ in a detail not shown here. Equal entries are not always repeated.",
  "data": [
    {"substance": "IRE1α kinase-endoribonuclease module, unphosphorylated (IRE1-KR-0P) (from UniProt O75460 547-977) (domain or fragment)", "values": [
      {"measurement": "stoichiometry N", "setting": "[1]", "value": 2}
    ]},
    {"substance": "IRE1α kinase-endoribonuclease module, fully phosphorylated (IRE1-KR-3P) (from UniProt O75460 547-977) (domain or fragment)", "values": [
      {"measurement": "stoichiometry N", "setting": "[2]", "value": "2 and 4 and 6"}
    ]}
  ]
}
